The text below walks through data of patent US11306156.

Values joined by “and” are separate entries in the source; they are usually repeats but may differ in a detail not shown here. Equal values may be shown once.

The target of test [1] is D3H44 light chain Q124E_Q160E_T180E, N-terminal HA or FLAG tag. Briefly: LCCA, L1:L2 DNA 1:3, SPR of light chain tags; competing light chain m10.
The target of test [2] is D3H44 light chain T178R, N-terminal HA or FLAG tag. Description: LCCA, L1:L2 DNA 1:3, SPR of light chain tags; competing light chain m11.
The target in test [3] is D3H44 light chain Q124E_Q160E_T180E, N-terminal HA or FLAG tag. Description: LCCA, L1:L2 DNA 1:9, SPR of light chain tags; competing light chain m10.
Test [4] concerns the target D3H44 light chain T178R, N-terminal HA or FLAG tag. Description: LCCA, L1:L2 DNA 1:9, SPR of light chain tags; competing light chain m11.
Test [5] has as its target D3H44 light chain Q124E_T180E, N-terminal HA or FLAG tag. Description: LCCA, L1:L2 DNA 1:3, SPR of light chain tags; competing light chain m10.
The target in test [6] is D3H44 light chain Q124K_T178R, N-terminal HA or FLAG tag. Briefly: LCCA, L1:L2 DNA 1:3, SPR of light chain tags; competing light chain m11.
In test [7] the target is D3H44 light chain Q124R_T178K, N-terminal HA or FLAG tag. The test is described as above.
Test [8] addresses D3H44 light chain Q124R_T178R, N-terminal HA or FLAG tag. The test is described as above.
Test [9] deals with D3H44 light chain Q124E_Q160E_T180E, N-terminal HA or FLAG tag. Description: LCCA, L1:L2 DNA 1:3, SPR of light chain tags; competing light chain m12.
Test [10] concerns the target D3H44 light chain Q124E_T180E, N-terminal HA or FLAG tag. Described as above.
The target in test [11] is D3H44 light chain Q124R_Q160K_T178R, N-terminal HA or FLAG tag. Description: LCCA, L1:L2 DNA 1:3, SPR of light chain tags; competing light chain m13.
Test [12] addresses D3H44 light chain Q124R_T178R, N-terminal HA or FLAG tag. Described as above.
In test [13] the target is D3H44 light chain T178R, N-terminal HA or FLAG tag. The description is as above.
In test [14] the target is D3H44 light chain Q124E_T180E, N-terminal HA or FLAG tag. Description: LCCA, L1:L2 DNA 1:3, SPR of light chain tags; competing light chain m14.
Test [15] concerns the target D3H44 light chain Q124E_Q160E_T180E, N-terminal HA or FLAG tag. Description: LCCA, L1:L2 DNA 1:3, SPR of light chain tags; competing light chain m15.
Test [16] has the same target. Briefly: LCCA, L1:L2 DNA 1:3, SPR of light chain tags; competing light chain m16.
Test [17] deals with D3H44 light chain Q124K_T178R, N-terminal HA or FLAG tag. Description: LCCA, L1:L2 DNA 1:9, SPR of light chain tags; competing light chain m11.
Test [18] addresses D3H44 light chain Q124R_T178K, N-terminal HA or FLAG tag. Described as above.
The target of test [19] is D3H44 light chain Q124R_T178R, N-terminal HA or FLAG tag. The test is described as above.
Test [20] deals with D3H44 light chain Q124E_Q160E_T180E, N-terminal HA or FLAG tag. Description: LCCA, L1:L2 DNA 1:9, SPR of light chain tags; competing light chain m12.
For test [21] the target is unchanged. Description: LCCA, L1:L2 DNA 1:9, SPR of light chain tags; competing light chain m15.
Test [22] has the same target. Briefly: LCCA, L1:L2 DNA 1:9, SPR of light chain tags; competing light chain m16.
Test [23] has as its target D3H44 light chain Q124K_T178R, N-terminal HA or FLAG tag. Briefly: LCCA, L1:L2 DNA 1:3, SPR of light chain tags; competing light chain m13.
Test [24] has as its target D3H44 light chain Q124E_T180E, N-terminal HA or FLAG tag. Description: LCCA, L1:L2 DNA 1:3, SPR of light chain tags; competing light chain m15.
Test [25] addresses D3H44 light chain Q124E_S176L_T180E, N-terminal HA or FLAG tag. Description: LCCA, L1:L2 DNA 1:3, SPR of light chain tags; competing light chain m12.
The target in test [26] is D3H44 light chain Q124E_V133E, N-terminal HA or FLAG tag. Briefly: LCCA, L1:L2 DNA 1:3, SPR of light chain tags; competing light chain m14.
For test [27], the target named is D3H44 light chain Q124R_Q160K_T178R, N-terminal HA or FLAG tag. Description: LCCA, L1:L2 DNA 1:3, SPR of light chain tags; competing light chain m18.
For test [28], the target named is D3H44 light chain Q124R_T178R, N-terminal HA or FLAG tag. Briefly: LCCA, L1:L2 DNA 1:3, SPR of light chain tags; competing light chain m19.
For test [29], the target named is D3H44 light chain Q124E_S176L_T180E, N-terminal HA or FLAG tag. Briefly: LCCA, L1:L2 DNA 1:9, SPR of light chain tags; competing light chain m12.
The target in test [30] is D3H44 light chain Q124E_V133E, N-terminal HA or FLAG tag. Description: LCCA, L1:L2 DNA 1:9, SPR of light chain tags; competing light chain m14.
Test [31] addresses D3H44 light chain Q124R_Q160K_T178R, N-terminal HA or FLAG tag. Description: LCCA, L1:L2 DNA 1:9, SPR of light chain tags; competing light chain m18.
The target in test [32] is D3H44 light chain Q124R_T178R, N-terminal HA or FLAG tag. Briefly: LCCA, L1:L2 DNA 1:9, SPR of light chain tags; competing light chain m19.
In test [33] the target is D3H44 light chain Q124E_V133E, N-terminal HA or FLAG tag. Briefly: LCCA, L1:L2 DNA 1:3, SPR of light chain tags; competing light chain m17.
Test [34] concerns the target D3H44 light chain Q124R, N-terminal HA or FLAG tag. Description: LCCA, L1:L2 DNA 1:3, SPR of light chain tags; competing light chain m18.
The target of test [35] is D3H44 light chain Q124E_V133E, N-terminal HA or FLAG tag. Description: LCCA, L1:L2 DNA 1:9, SPR of light chain tags; competing light chain m17.
Test [36] concerns the target D3H44 light chain Q124R, N-terminal HA or FLAG tag. Description: LCCA, L1:L2 DNA 1:9, SPR of light chain tags; competing light chain m18.

Take “D3H44 Fab heavy chain L143D_K145T_Q179E, C-terminal ABD2-His6 tag”: the H1L1:H1L2 normalized median ratio was 11 share of 100 in test [1], 89 share of 100 in test [2], 11 share of 100 in test [3] and 89 share of 100 in test [4]. Also, the H1L1:H1L2 normalized median scalar value ln(r1/f1) in test [2] came out at 2.1; in [4], 2.09.

In the case of “D3H44 Fab heavy chain L143E_K145T_Q179D, C-terminal ABD2-His6 tag”, the H1L1:H1L2 normalized median ratio in test [5] was 35 share of 100; in test [6], 86 share of 100; in test [7], 89 share of 100; in test [8], 87 share of 100; in test [9], 13 share of 100; in [10], 24 share of 100. In addition, the H1L1:H1L2 normalized median ratio in test [11] was 69 share of 100; in test [12] it was 76 share of 100; in [13] it was 65 share of 100; in test [14], 31 share of 100; in test [15], 14 share of 100; in test [16], 11 share of 100. The H1L1:H1L2 normalized median ratio in [17] is 86 share of 100; in test [18], 78 share of 100; in [19], 82 share of 100; in [20], 18 share of 100; in test [21] it was 14 share of 100; in test [22], 22 share of 100. Further, the H1L1:H1L2 normalized median scalar value ln(r1/f1) in test [6] is 1.78; in test [7], 2.08 and 2.03; in [8], 1.9; in [11], 0.79; in test [12], 1.14; in test [13] it was 0.64. Moreover, the H1L1:H1L2 normalized median scalar value ln(r1/f1) in test [17] worked out at 1.84; in test [18], 1.28; in test [19], 1.55.

Take “D3H44 Fab heavy chain L143E_K145T_Q179E, C-terminal ABD2-His6 tag”: the H1L1:H1L2 normalized median ratio in [5] is 40 share of 100; in [7] it was 83 share of 100 and 33 share of 100; in test [8] it was 91 share of 100; in test [9] it was 9 share of 100; in [23] it was 70 share of 100; in [11] it was 73 share of 100. Besides, the H1L1:H1L2 normalized median ratio is 60 share of 100 in test [13]; 27 share of 100 in test [14]; 30 share of 100 in [24]; 17 share of 100 in [16]; 78 share of 100 in [19]; 22 share of 100 in test [20]. The H1L1:H1L2 normalized median scalar value ln(r1/f1) in [7] came out at 1.62; in test [8], 2.27; in test [23], 0.84; in test [11], 1; in test [13] it was 0.41; in test [19] it was 1.29.

With “D3H44 Fab heavy chain L143E_K145T_Q179E_S188L, C-terminal ABD2-His6 tag”, the H1L1:H1L2 normalized median ratio was 13 share of 100 in [25]; 11 share of 100 in [26]; 89 share of 100 in test [27]; 87 share of 100 in test [28]; 10 share of 100 in test [29]; 13 share of 100 in [30]. Further, the values for the H1L1:H1L2 normalized median ratio in test [31] and in test [32] were 87 share of 100 and 90 share of 100, respectively. Also, the H1L1:H1L2 normalized median scalar value ln(r1/f1) in [27] was 2.06; in [28] it was 1.9; in [31], 1.86; in test [32] it was 2.25.

As for “D3H44 Fab heavy chain L143R, C-terminal ABD2-His6 tag”, the H2L2:H2L1 normalized median ratio in [26] was 96 share of 100; in test [33] it was 96 share of 100; in test [34] it was 4 share of 100; in [27], 4 share of 100; in test [30] it was 93 share of 100; in test [35], 74 share of 100. Moreover, the H2L2:H2L1 normalized median ratio was 26 share of 100 in test [36] and 7 share of 100 in test [31].

Turning to “D3H44 Fab heavy chain Q179K, C-terminal ABD2-His6 tag”, the H2L2:H2L1 normalized median ratio in test [5] is 96 share of 100; in [6], 8 share of 100; in [7], 11 share of 100; in test [8], 12 share of 100; in test [9] it was 88 share of 100; in [25], 96 share of 100. Also, the H2L2:H2L1 normalized median ratio in [10] is 96 share of 100; in test [23], 4 share of 100; in test [11], 4 share of 100; in [12], 4 share of 100; in [13], 4 share of 100; in [14] it was 96 share of 100. The H2L2:H2L1 normalized median ratio was 92 share of 100 in test [15]; 96 share of 100 in [24]; 89 share of 100 in [16]; 4 share of 100 in test [28]; 10 share of 100 in test [17]; 7 share of 100 in test [18]. The H2L2:H2L1 normalized median ratio in [19] is 10 share of 100; in test [20] it was 90 share of 100; in test [21], 90 share of 100; in test [22], 93 share of 100.
